Experimental data taken from patent publication US20130053549A1 (UCB, published 2013).

T1: Ox40/mFc (UniProt P43489 29-214)
T1 construct: Bought fusion protein; also called Ox40/mFc (AXXORA 1588)
T1 sequence (looked up): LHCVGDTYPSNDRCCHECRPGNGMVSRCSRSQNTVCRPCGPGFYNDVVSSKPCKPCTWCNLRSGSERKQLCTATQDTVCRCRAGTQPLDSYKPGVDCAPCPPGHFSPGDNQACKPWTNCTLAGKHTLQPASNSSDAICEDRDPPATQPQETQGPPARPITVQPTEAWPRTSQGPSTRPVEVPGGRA

B1: A26Fab 645Fv 4G4S 1189Fv (other)
heavy: EVQLVESGGGLVQPGGSLRLSCAASGFTFTNYGIHWIRQAPGKGLEWVASISPSGGLTYYRDSVKGRFTISRDDAKNSPYLQMNSLRAEDTAVYYCATGGEGIFDYWGQGTLVTVSSASTKGPSVFPLAPSSKSTSGGTAALGCLVKDYFPEPVTVSWNSGALTSGVHTFPAVLQSSGLYSLSSVVTVPSSSLGTQTYICNVNHKPSNTKVDKKVEPKSCSGGGGSGGGGSGGGGSEVQLLESGGGLVQPGGSLRLSCAVSGIDLSNYAINWVRQAPGKCLEWIGIIWASGTTFYATWAKGRFTISRDSTTVYLQMNSLRAEDTAVYYCARTVPGYSTAPYFDLWGQGTLVTVSSGGGGSGGGGSGGGGSGGGGSEVQLVESGGGLVQPGGSLRLSCAASGFTFNDYDMAWVRQAPGKCLEWVASITPSGGGTYYRDSVKGRFTISRDNAKNSLYLQMNSLRAEDTAVYYCARHGYTLDYFEYWGQGTMVTVSS
light: DIQMTQSPSSLSASVGDRVTITCRATQSIYNALAWYQQKPGKAPKLLIYNANTLHTGVPSRFSASGSGTDSTLTISSLQPEDFATYYCQQYYDYPLTFGGGTKVEIKRTVAAPSVFIFPPSDEQLKSGTASVVCLLNNFYPREAKVQWKVDNALQSGNSQESVTEQDSKDSTYSLSSTLTLSKADYEKHKVYACEVTHQGLSSPVTKSFNRGECSGGGGSGGGGSGGGGSDIVMTQSPSSVSASVGDRVTITCQSSPSVWSNFLSWYQQKPGKAPKLLIYEASKLTSGVPSRFKGSGSGTDFTLTISSLQPEDFATYYCGGGYSSISDTTFGCGTKVEIKGGGGSGGGGSGGGGSGGGGSDIQMTQSPSSLSASVGDRVTITCLASEGISNDLAWYQQKPGKAPKLLIYDATRLQDGVPSRFSGSGSGTDFTLTISSLQPEDFATYYCQQSYKYPWTFGCGTKLEIK
notes: Trispecific Fab-Fv-Fv (OX40, HSA, IL-6); second linker 4xG4S; HEK293 supernatant; also called A26Fab-645Fv-1189Fv; FabFvFv
B2: A26Fab 645Fv 2G4S 1189Fv (other)
heavy: EVQLVESGGGLVQPGGSLRLSCAASGFTFTNYGIHWIRQAPGKGLEWVASISPSGGLTYYRDSVKGRFTISRDDAKNSPYLQMNSLRAEDTAVYYCATGGEGIFDYWGQGTLVTVSSASTKGPSVFPLAPSSKSTSGGTAALGCLVKDYFPEPVTVSWNSGALTSGVHTFPAVLQSSGLYSLSSVVTVPSSSLGTQTYICNVNHKPSNTKVDKKVEPKSCSGGGGSGGGGSGGGGSEVQLLESGGGLVQPGGSLRLSCAVSGIDLSNYAINWVRQAPGKCLEWIGIIWASGTTFYATWAKGRFTISRDSTTVYLQMNSLRAEDTAVYYCARTVPGYSTAPYFDLWGQGTLVTVSSGGGGSGGGGSEVQLVESGGGLVQPGGSLRLSCAASGFTFNDYDMAWVRQAPGKCLEWVASITPSGGGTYYRDSVKGRFTISRDNAKNSLYLQMNSLRAEDTAVYYCARHGYTLDYFEYWGQGTMVTVSS
light: DIQMTQSPSSLSASVGDRVTITCRATQSIYNALAWYQQKPGKAPKLLIYNANTLHTGVPSRFSASGSGTDSTLTISSLQPEDFATYYCQQYYDYPLTFGGGTKVEIKRTVAAPSVFIFPPSDEQLKSGTASVVCLLNNFYPREAKVQWKVDNALQSGNSQESVTEQDSKDSTYSLSSTLTLSKADYEKHKVYACEVTHQGLSSPVTKSFNRGECSGGGGSGGGGSGGGGSDIVMTQSPSSVSASVGDRVTITCQSSPSVWSNFLSWYQQKPGKAPKLLIYEASKLTSGVPSRFKGSGSGTDFTLTISSLQPEDFATYYCGGGYSSISDTTFGCGTKVEIKGGGGSGGGGSDIQMTQSPSSLSASVGDRVTITCLASEGISNDLAWYQQKPGKAPKLLIYDATRLQDGVPSRFSGSGSGTDFTLTISSLQPEDFATYYCQQSYKYPWTFGCGTKLEIK
notes: Trispecific Fab-Fv-Fv (OX40, HSA, IL-6); second linker 2xG4S; HEK293 supernatant; also called A26Fab-645Fv-1189Fv; FabFvFv
B3: A26Fab 645Fv 3G4S 1189Fv (other)
heavy: EVQLVESGGGLVQPGGSLRLSCAASGFTFTNYGIHWIRQAPGKGLEWVASISPSGGLTYYRDSVKGRFTISRDDAKNSPYLQMNSLRAEDTAVYYCATGGEGIFDYWGQGTLVTVSSASTKGPSVFPLAPSSKSTSGGTAALGCLVKDYFPEPVTVSWNSGALTSGVHTFPAVLQSSGLYSLSSVVTVPSSSLGTQTYICNVNHKPSNTKVDKKVEPKSCSGGGGSGGGGSGGGGSEVQLLESGGGLVQPGGSLRLSCAVSGIDLSNYAINWVRQAPGKCLEWIGIIWASGTTFYATWAKGRFTISRDSTTVYLQMNSLRAEDTAVYYCARTVPGYSTAPYFDLWGQGTLVTVSSGGGGSGGGGSGGGGSEVQLVESGGGLVQPGGSLRLSCAASGFTFNDYDMAWVRQAPGKCLEWVASITPSGGGTYYRDSVKGRFTISRDNAKNSLYLQMNSLRAEDTAVYYCARHGYTLDYFEYWGQGTMVTVSS
light: DIQMTQSPSSLSASVGDRVTITCRATQSIYNALAWYQQKPGKAPKLLIYNANTLHTGVPSRFSASGSGTDSTLTISSLQPEDFATYYCQQYYDYPLTFGGGTKVEIKRTVAAPSVFIFPPSDEQLKSGTASVVCLLNNFYPREAKVQWKVDNALQSGNSQESVTEQDSKDSTYSLSSTLTLSKADYEKHKVYACEVTHQGLSSPVTKSFNRGECSGGGGSGGGGSGGGGSDIVMTQSPSSVSASVGDRVTITCQSSPSVWSNFLSWYQQKPGKAPKLLIYEASKLTSGVPSRFKGSGSGTDFTLTISSLQPEDFATYYCGGGYSSISDTTFGCGTKVEIKGGGGSGGGGSGGGGSDIQMTQSPSSLSASVGDRVTITCLASEGISNDLAWYQQKPGKAPKLLIYDATRLQDGVPSRFSGSGSGTDFTLTISSLQPEDFATYYCQQSYKYPWTFGCGTKLEIK
notes: Trispecific Fab-Fv-Fv (OX40, HSA, IL-6); second linker 3xG4S; HEK293 supernatant; also called A26Fab-645Fv-1189Fv; FabFvFv
B4: A26Fab 645Fv 5G4S 1189Fv (other)
heavy: EVQLVESGGGLVQPGGSLRLSCAASGFTFTNYGIHWIRQAPGKGLEWVASISPSGGLTYYRDSVKGRFTISRDDAKNSPYLQMNSLRAEDTAVYYCATGGEGIFDYWGQGTLVTVSSASTKGPSVFPLAPSSKSTSGGTAALGCLVKDYFPEPVTVSWNSGALTSGVHTFPAVLQSSGLYSLSSVVTVPSSSLGTQTYICNVNHKPSNTKVDKKVEPKSCSGGGGSGGGGSGGGGSEVQLLESGGGLVQPGGSLRLSCAVSGIDLSNYAINWVRQAPGKCLEWIGIIWASGTTFYATWAKGRFTISRDSTTVYLQMNSLRAEDTAVYYCARTVPGYSTAPYFDLWGQGTLVTVSSGGGGSGGGGSGGGGSGGGGSGGGGSEVQLVESGGGLVQPGGSLRLSCAASGFTFNDYDMAWVRQAPGKCLEWVASITPSGGGTYYRDSVKGRFTISRDNAKNSLYLQMNSLRAEDTAVYYCARHGYTLDYFEYWGQGTMVTVSS
light: DIQMTQSPSSLSASVGDRVTITCRATQSIYNALAWYQQKPGKAPKLLIYNANTLHTGVPSRFSASGSGTDSTLTISSLQPEDFATYYCQQYYDYPLTFGGGTKVEIKRTVAAPSVFIFPPSDEQLKSGTASVVCLLNNFYPREAKVQWKVDNALQSGNSQESVTEQDSKDSTYSLSSTLTLSKADYEKHKVYACEVTHQGLSSPVTKSFNRGECSGGGGSGGGGSGGGGSDIVMTQSPSSVSASVGDRVTITCQSSPSVWSNFLSWYQQKPGKAPKLLIYEASKLTSGVPSRFKGSGSGTDFTLTISSLQPEDFATYYCGGGYSSISDTTFGCGTKVEIKGGGGSGGGGSGGGGSGGGGSGGGGSDIQMTQSPSSLSASVGDRVTITCLASEGISNDLAWYQQKPGKAPKLLIYDATRLQDGVPSRFSGSGSGTDFTLTISSLQPEDFATYYCQQSYKYPWTFGCGTKLEIK
notes: Trispecific Fab-Fv-Fv (OX40, HSA, IL-6); second linker 5xG4S; HEK293 supernatant; also called A26Fab-645Fv-1189Fv; FabFvFv
B5: A26Fab-(3xG4S)-645dsFv-(3xG4S)-870dsFv (other)
heavy: EVQLVESGGGLVQPGGSLRLSCAASGFTFTNYGIHWIRQAPGKGLEWVASISPSGGLTYYRDSVKGRFTISRDDAKNSPYLQMNSLRAEDTAVYYCATGGEGIFDYWGQGTLVTVSSASTKGPSVFPLAPSSKSTSGGTAALGCLVKDYFPEPVTVSWNSGALTSGVHTFPAVLQSSGLYSLSSVVTVPSSSLGTQTYICNVNHKPSNTKVDKKVEPKSCSGGGGSGGGGSGGGGSEVQLLESGGGLVQPGGSLRLSCAVSGIDLSNYAINWVRQAPGKCLEWIGIIWASGTTFYATWAKGRFTISRDSTTVYLQMNSLRAEDTAVYYCARTVPGYSTAPYFDLWGQGTLVTVSSGGGGSGGGGSGGGGSEVQLVESGGGLVQPGGSLRLSCAASGYVFTDYGMNWVRQAPGKCLEWMGWINTYIGEPIYADSVKGRFTFSLDTSKSTAYLQMNSLRAEDTAVYYCARGYRSYAMDYWGQGTLVTVSS
light: DIQMTQSPSSLSASVGDRVTITCRATQSIYNALAWYQQKPGKAPKLLIYNANTLHTGVPSRFSASGSGTDSTLTISSLQPEDFATYYCQQYYDYPLTFGGGTKVEIKRTVAAPSVFIFPPSDEQLKSGTASVVCLLNNFYPREAKVQWKVDNALQSGNSQESVTEQDSKDSTYSLSSTLTLSKADYEKHKVYACEVTHQGLSSPVTKSFNRGECSGGGGSGGGGSGGGGSDIVMTQSPSSVSASVGDRVTITCQSSPSVWSNFLSWYQQKPGKAPKLLIYEASKLTSGVPSRFKGSGSGTDFTLTISSLQPEDFATYYCGGGYSSISDTTFGCGTKVEIKGGGGSGGGGSGGGGSDIQMTQSPSSLSASVGDRVTITCKASQNVGTNVAWYQQKPGKAPKALIYSASFLYSGVPYRFSGSGSGTDFTLTISSLQPEDFATYYCQQYNIYPLTFGCGTKVEIKR
notes: Trispecific Fab-Fv-Fv (OX40, HSA, TNF); terminal 870 Fv with a disulfide (+DS read as dsFv); HEK293 supernatant; also called A26-645-870+DS; A26Fab-645Fv-652/870Fv

What follows are binders tested against T2, IL-6 (UniProt P05231 30-212, limits assumed) (assay: SPR, Biacore T100; sample captured by anti-human CH1 antibody, IL-6 as analyte).
Method: (§1) Covalent immobilisation of the capture antibody was achieved by standard amine coupling chemistry.
(§2) After each cycle, the capture surface was regenerated with 2×1 min injections of 40 mM HCl followed by 30 s of 5 mM NaOH. The flow rates used were 10 μl/min for capture, 30 μl/min for association and dissociation phases, and 10 μl/min for regeneration.
(§3) A blank flow-cell was used for reference subtraction and buffer-blank injections were included to subtract instrument noise and drift.

Stoichiometry | Binder
0.66 | B1
0.47 | B2
0.68 | B3
0.69 | B4

The binders below were run against T1, Ox40/mFc (assay: SPR, Biacore 3000; construct captured by anti-human CH1 antibody, 20 nM Ox40/mFc alone).
Method: as §1, §2

Response RU | Binder
32 RU | B5

These binders were tested against T2, IL-6 (assay: SPR, Biacore T100; sample captured by anti-human CH1 antibody, IL-6 as analyte, 1:1 fit).
Method: as §1, §3
(§4) Kinetic parameters were determined by simultaneous global-fitting of the resulting sensorgrams to a standard 1:1 binding model using Biacore T100 Evaluation Software v2.0.1.

Kd | koff | kon | Binder
0.52 nM | 0.000729 s⁻¹ | 1.41e+06 M⁻¹ s⁻¹ | B1
0.78 nM | 0.000747 s⁻¹ | 959000 M⁻¹ s⁻¹ | B2
0.84 nM | 0.000737 s⁻¹ | 874000 M⁻¹ s⁻¹ | B3
0.48 nM | 0.000768 s⁻¹ | 1.61e+06 M⁻¹ s⁻¹ | B4

These binders were tested against T3, human serum albumin (human, UniProt P02768 25-609) (assay: SPR, Biacore T100; sample captured by anti-human CH1 antibody, HSA as analyte).
T3 construct: Bought protein; also called HSA
Method: as §1, §2, §3

Stoichiometry | Binder
0.4 | B1
0.4 | B2
0.39 | B3
0.39 | B4

The binders below were run against T3, human serum albumin (assay: SPR, Biacore T100; sample captured by anti-human CH1 antibody, HSA as analyte, 1:1 fit).
Method: as §1, §2, §4

Kd | koff | kon | Binder
11.7 nM | 0.000396 s⁻¹ | 33900 M⁻¹ s⁻¹ | B1
11.6 nM | 0.000389 s⁻¹ | 33700 M⁻¹ s⁻¹ | B2
11.6 nM | 0.000392 s⁻¹ | 33800 M⁻¹ s⁻¹ | B3
12.2 nM | 0.000393 s⁻¹ | 32400 M⁻¹ s⁻¹ | B4

Each binder was assayed against T3, human serum albumin (assay: SPR, Biacore 3000; construct captured by anti-human CH1 antibody, 50 nM HSA alone).
Method: as §1, §2

Response RU | Binder
10 RU | B5

These binders were tested against T4, TNF (human, UniProt P01375 77-233) (assay: SPR, Biacore 3000; sample captured by anti-human CH1 antibody, TNF as analyte).
T4 construct: also called TNF (Strathmann hTNFa); hTNFa
Method: as §1, §2
Kinetic parameters were determined by simultaneous global-fitting of the resulting sensorgrams to a standard 1:1 binding model using Biacore 3000 Evaluation Software v3.2

Affinity (fold loss against the parent) | Stoichiometry | Binder
2 fold | 0.42 | B5
